Laboratory results published in publication PMC11955523, “Cryo-TEM structure of β-glucocerebrosidase in complex with its transporter LIMP-2” (Nature Communications, 2025).

How the values were obtained:
Conditions in all cases: both partners purified
[1] = biological target: T1, recombinant GCase with C-terminal His10-tag (for cross-linking with SapC) (human, UniProt P04062 40-536); experiment: cross-linking; GCase 16.3-20.0 µM and SapC 32.5 µM in McIlvaine buffer pH 6.0 with 10 mM NaCl (some reactions with 0.1% Triton X-100 and 0.25% sodium taurocholate); BS3(d0)/BS3(d4) or DTSSP at 1 mM, 1 h at room temperature; gel bands read by mass spectrometry
T1 construct: β-glucocerebrosidase (GCase), with a small spacer and a TEV protease cleavage site before the C-terminal His10-tag; no TEV cleavage is described; source: FreeStyle 293 HEK cells, stably transfected (pcDNA3.1(+)), purified from cell media (HisTrap)
T1 sequence (looked up): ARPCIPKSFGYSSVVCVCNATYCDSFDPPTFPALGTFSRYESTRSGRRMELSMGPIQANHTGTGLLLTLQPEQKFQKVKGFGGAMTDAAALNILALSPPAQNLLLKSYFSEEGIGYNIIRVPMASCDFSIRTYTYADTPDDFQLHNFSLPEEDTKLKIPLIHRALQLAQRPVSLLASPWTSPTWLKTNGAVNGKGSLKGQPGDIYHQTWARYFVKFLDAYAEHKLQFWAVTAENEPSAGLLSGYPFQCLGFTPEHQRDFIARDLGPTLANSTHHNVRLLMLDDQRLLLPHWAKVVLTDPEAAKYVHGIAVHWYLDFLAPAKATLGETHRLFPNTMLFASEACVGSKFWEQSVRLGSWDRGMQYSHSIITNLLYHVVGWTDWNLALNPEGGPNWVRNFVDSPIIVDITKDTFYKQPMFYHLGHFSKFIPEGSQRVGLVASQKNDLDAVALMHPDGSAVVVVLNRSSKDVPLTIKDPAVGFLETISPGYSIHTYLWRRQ

[2] = biological target: T2, β-glucocerebrosidase (GCase), untagged wild type (human, UniProt P04062 40-536, N-glycans at N19, N59, N146, N270); experiment: cryo-EM structure; GCase/sLIMP-2/PMb1/PMb2 complex from SEC, 0.6 mg/ml, single particle analysis, 3.7 Å global resolution
T2 construct: β-glucocerebrosidase (GCase), human, gene GBA1, wild type, expressed from the commercial plasmid pCMV3-GBA-wt; also called GCase wt; wt GCase; source: HEK 293F-sL2 cells transfected with pCMV3-GBA-wt, secreted in complex with sLIMP-2, purified (Ni-NTA, SEC); HEK 293F cells co-transfected with sLIMP-2 plasmids, in conditioned medium
T2 sequence (looked up): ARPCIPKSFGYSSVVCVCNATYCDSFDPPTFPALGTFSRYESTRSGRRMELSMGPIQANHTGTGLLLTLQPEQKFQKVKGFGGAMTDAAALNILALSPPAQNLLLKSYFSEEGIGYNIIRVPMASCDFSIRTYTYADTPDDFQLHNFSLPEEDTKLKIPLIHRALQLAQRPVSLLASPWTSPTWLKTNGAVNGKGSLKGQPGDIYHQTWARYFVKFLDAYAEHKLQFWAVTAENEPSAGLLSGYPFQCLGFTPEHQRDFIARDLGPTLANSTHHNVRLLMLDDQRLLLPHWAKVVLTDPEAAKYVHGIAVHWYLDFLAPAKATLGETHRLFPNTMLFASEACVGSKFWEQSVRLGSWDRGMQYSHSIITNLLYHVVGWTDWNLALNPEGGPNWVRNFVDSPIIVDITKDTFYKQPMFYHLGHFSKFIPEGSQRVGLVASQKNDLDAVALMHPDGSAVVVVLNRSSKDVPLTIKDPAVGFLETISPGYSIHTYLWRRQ

[3] = biological target: T3, β-glucocerebrosidase (GCase), untagged wild type (human, UniProt P04062, N-glycans at N19, N59, N146, N270); experiment: as above
T3 construct: β-glucocerebrosidase (GCase), human, gene GBA1, wild type, expressed from the commercial plasmid pCMV3-GBA-wt; also called GCase wt; wt GCase; source: HEK 293F-sL2 cells transfected with pCMV3-GBA-wt, secreted in complex with sLIMP-2, purified (Ni-NTA, SEC); HEK 293F cells co-transfected with sLIMP-2 plasmids, in conditioned medium

[4] = biological target: T4, GCase used for size exclusion chromatography with Nb1 and Nb6 (human, UniProt P04062); experiment: SEC; 20 µM GCase mixed with 100 µM Nb1, Nb6 or both; Superdex 200 Increase 5/150 GL, 10 mM MES, 100 mM NaCl, 1 mM DTT, 5% glycerol, pH 5.2, 12 °C
T4 construct: β-glucocerebrosidase (GCase); it may be the same as m8 or another recombinant GCase

Row | Binder | binding result [3] | binding result [4] | further results
1 | Saposin C (SapC) (natural protein, Homo sapiens, UniProt P07602 311-390, looked up, Saposin C, Homo sapiens, the cut product of prosaposin; synthetic gene, codon optimised for E. coli, in pET-28a(+); The His6-tag is followed by a TEV protease cleavage site; no cleavage is described in the purification; source: E. coli BL21(DE3) or BL21(DE3)pLysS, purified (HisTrap, Superdex 75)) SDVYCEVCEFLVKEVTKLIDNNKTEKEILDAFDKMCSKLPKSLSEECQEVVDTYGSSILSILLEEVSPELVCSMLHLCSG |  |  | binding result [1]: binds
2 | soluble LIMP-2 shuttle construct (sLIMP-2), secreted LIMP-2 ectodomain, wild type (domain or fragment, human, UniProt Q14108 36-431, looked up, N-glycans at N45, N68, N105, N206, N224, N249, N304, N325, N412, lysosomal integral membrane protein type-2 (LIMP-2), human, gene SCARB2, amino acids 36-431 (ectodomain); the 10xHis tag is TEV-cleavable, and no cleavage is described; also called wt sLIMP-2; lysosomal integral membrane protein type-2; source: HEK 293F cells transfected, in conditioned medium; not shown: His10, C-terminal, kept) SIEKKIVLRNGTEAFDSWEKPPLPVYTQFYFFNVTNPEEILRGETPRVEEVGPYTYRELRNKANIQFGDNGTTISAVSNKAYVFERDQSVGDPKIDLIRTLNIPVLTVIEWSQVHFLREIIEAMLKAYQQKLFVTHTVDELLWGYKDEILSLIHVFRPDISPYFGLFYEKNGTNDGDYVFLTGEDSYLNFTKIVEWNGKTSLDWWITDKCNMINGTDGDSFHPLITKDEVLYVFPSDFCRSVYITFSDYESVQGLPAFRYKVPAEILANTSDNAGFCIPEGNCLGSGVLNVSICKNGAPIIMSFPHFYQADERFVSAIEGMHPNQEDHETFVDINPLTGIILKAAKRFQINIYVKKLDDFVETGDIRTMVFPVMYLNESVHIDKETASRLKSMINT |  |  | binding result [2]: binds
3 | pro-macrobody PMb2 (nanobody Nb6, CA16669, fused to maltose binding protein) (VHH, nanobody Nb6 (CA16669) raised against GCase; proline-proline linker, told in words; The N-terminal pelB-10xHis-MBP was removed with 3C protease; Only the nanobody domain is modelled in PDB 9FJF; also called PMbs; source: E. coli MC1061, purified (Ni-NTA, 3C cleavage, second IMAC, SEC); not shown: His10, N-terminal, cleaved; MBP, N-terminal, cleaved) VHH: QVQLVESGGGLVQPGGSLRLSCAASGSIFSINTMGWYRQAPGKEREMVAYIITFGSTNYADSVKGRFTISGDNANNTMWLQMNSLKPEDTAVYYCYAAIRPTDSSTYTSYWGQGTQVTVPP | binds |  | 
4 | nanobody Nb6 (CA16669) against GCase (VHH, nanobody Nb6 (CA16669); they are, as the nanobody domain of m4, in PDB 9FJF; Encoded in a pHEN29 vector) VHH: QVQLVESGGGLVQPGGSLRLSCAASGSIFSINTMGWYRQAPGKEREMVAYIITFGSTNYADSVKGRFTISGDNANNTMWLQMNSLKPEDTAVYYCYAAIRPTDSSTYTSYWGQGTQVTVPP |  | binds | 
5 | pro-macrobody PMb1 (nanobody Nb1, CA16655, fused to maltose binding protein) (VHH, nanobody Nb1 (CA16655) raised against GCase; proline-proline linker, told in words; The N-terminal pelB-10xHis-MBP was removed with 3C protease; the C-terminal MBP is part of the pro-macrobody and was detected by anti-MBP blot; By my reading of the printed primers the C-terminal MBP begins at LVIWING after the PP linker and ends at KDAQT followed by PGA; Only the nanobody domain is modelled in …) VHH: QVQLVESGGGLVQPGGSLRLSCAASGFTLDYYAIGWFRQAPGKEREGVSCISSSDGSTYYADSAKGRFTISRDNAKNTVYLQMNSLKPEDTAVYYCATDRGQCTYYSSGYYRDLRWYDYWGQGTQVTVPP | binds |  | 
6 | nanobody Nb1 (CA16655) against GCase (VHH, nanobody Nb1 (CA16655); they are in PDB 9ENA and, as the nanobody domain of m3, in PDB 9FJF; Encoded in a pHEN29 vector; also called Nbs1) VHH: QVQLVESGGGLVQPGGSLRLSCAASGFTLDYYAIGWFRQAPGKEREGVSCISSSDGSTYYADSAKGRFTISRDNAKNTVYLQMNSLKPEDTAVYYCATDRGQCTYYSSGYYRDLRWYDYWGQGTQVTVSS |  | binds | 
